Test results published in patent publication US20240165226A1, “COMBINATION TREATMENT OF CD38-EXPRESSING TUMORS” (GENMAB A/S, priority 2006, published 2024).

Legend:
[1] = molecular target: T1, His-tagged extracellular domain of human CD38 (Homo sapiens, UniProt P28907); assay: Enzymatic activity of recombinant CD38 (cGDPR production); type: biochemical; conditions: for cGDPribose production / reduced production of cGDPR: after 90 minutes; for inhibitory effect on the production of cGDPR: recombinant His-CD38
T1 construct: poly-His-tag (N); made in house; secreted into culture supernatant
Protocol: The enzymatic activity of human CD38 was measured in an assay essentially as described in Graeff et al., J. Biol. Chem. 269, 30260-30267 (1994). Briefly, substrate NGD^+ (80 μM) was incubated with CD38 (0.6 μg/ml His-tagged extracellular domain of human CD38, see Example 3 regarding purification of His-CD38) in a buffer containing 20 mM Tris-HCl, pH 7.0. The production of cGDPR can be monitored spectrophotometrically at the emission wavelength of 410 nm (excitation at 300 nm). In this example an excitation filter of 340±60 nm and an emission filter of 430±8 nm was used.
To test the effect of -003, -005 and -024 on the enzymatic activity of CD38, recombinant His-CD38 protein was pre-incubated for 15 min at room temperature with various concentrations (30, 3, 0.3 and 0.03 μg/ml) of the different antibodies before adding the substrate NGD^+. The production of cyclic GDP-ribose (cGDPR) was recorded at different time points after addition of […] (3, 6, 9, 12, 30, 45, 60, 75 and 90 min).

[2] = tested on: AMO-1 (a multiple myeloma cell line); assay: ADCC set up II, AMO-1 cells; type: cell-based; conditions: CD38 expression is low
Protocol: (§1) Human blood from human volunteers (university Erlangen, Erlangen, Germany) was diluted twice in RPMI 1640 and blood cells were layered on Ficoll (Lymphocyte Separation Medium […], 710 g, RT, 20 min; BioWhittaker, Cambrex Bio Science Verviers, Verviers, Belgium, cat. 17-829E, lot no. 0148 32). Peripheral blood mononuclear cells (MNCs) were collected from the interphase, washed and resuspended in RPMI 1640 culture medium supplemented with 10% FCS, 2 mM L-glutamine, 5 U/ml penicillin, 50 μg/ml streptomycin (all derived from BioWhittaker) to which 25 mM HEPES (BioWhittaker) was added.
(§2) Target B-cells (fresh plasma cell leukemia tumor cells, JK6L and AMO-1 B-cell lines, obtained from Dr. T. Valerius, University of Erlangen, Erlangen, Germany) were labeled with 20 μCi ^51Cr (Amersham Biosciences, Uppsala, Sweden) for 2 hours. After extensive washing in RPMI-10, cells were adjusted to 1×10^5 cells/ml. […] After incubation (3 hr, 37° C.), assays were stopped by centrifugation, and 51Cr release from triplicates was measured in counts per minute (cpm) in a scintillation counter. Percentage of cellular cytotoxicity was calculated using the following formula: […]
(§3) with maximal ^51Cr release determined by adding perchloric acid (3% final concentration) to target cells, and basal release was measured in the absence of sensitizing antibodies and effector cells.

[3] = molecular target: T2, CHO cells transfected with human CD38 (CHO-CD38 cells) (Homo sapiens, UniProt P28907); assay: Enzymatic activity of cellular expressed CD38 (cGDPR production); type: cell-based; conditions: after 156 minutes; for cGDPribose production: CHO-CD38 cells
T2 construct: expressed in transfected cells; host or cells: CHO cells
Protocol: The enzymatic activity of cellular expressed human CD38 was measured in an assay essentially as described in Graeff et al., J. Biol. Chem. 269, 30260-30267 (1994). Briefly, substrate NGD (80 μM) was incubated with […] CHO cells transfected with human CD38 (CHO-CD38 cells) in a buffer containing 20 mM Tris-HCl, pH 7.0 supplemented with 30 μg/ml IgG1. The production of cGDPR can be monitored spectrophotometrically at the emission wavelength of 410 nm (excitation at 300 nm). In this example an excitation filter of 340±60 nm and an emission filter of 430±8 nm was used. To test the effect of -005 and -003 on the enzymatic activity of cellular expressed CD38, CHO-CD38 cells were pre-incubated for 15′ at room temp. with various concentrations (30, 3, 0.3 and 0.03 μg/ml) of the different antibodies before adding the substrate NGD. The production of cGDPR was recorded at different time points after addition of substrate NGD (3, 6, 9, 12, 30, 45, 60, 112 and 156 min).

HA-tagged CD38 = molecular target: T3, HA-tagged CD38 (Homo sapiens, UniProt P28907); assay: Surface plasmon resonance (Biacore 3000); type: binding; conditions: 25° C., mean of 3 experiments±SD
T3 construct: The extracellular domain of human CD38 was amplified from plasmid pCIpuroCD38; made in house
Protocol: Binding of -003 and -005 to CD38 was tested using surface plasmon resonance. Briefly, purified antibodies were immobilized on a CM-5 sensor chip (Biacore, Uppsala, Sweden) via anime coupling. HA-tagged CD38 (see Example 3) was flowed over, and the binding of antigen to mAb was detected by a change in refractive index at the surface of the chip using a Biacore 3000 (Biacore).

[4] = tested on: JK6L (a multiple myeloma cell line); assay: ADCC set up II, JK6L cells; type: cell-based; conditions: in words
Protocol: as §1, §2, §3

| Molecule | cGDPribose production ([1]; 0.03 μg/ml antibody) | cGDPribose production ([1]; 0.3 μg/ml antibody) | cGDPribose production ([1]; 3 μg/ml antibody) | reduced production of cGDPR ([1]; 3 μg/ml) [%] | cGDPribose production ([1]; 30 μg/ml antibody) | reduced production of cGDPR ([1]; 30 μg/ml) [%] | inhibitory effect on the production of cGDPR [1] | lysis of AMO-1 by ADCC [2] | cGDPribose production ([3]; 0.03 μg/ml antibody) | cGDPribose production ([3]; 0.3 μg/ml antibody) | cGDPribose production ([3]; 3 μg/ml antibody) | reduced production of cGDPR ([3]; 3 μg/ml) [%] | cGDPribose production ([3]; 30 μg/ml antibody) | reduced production of cGDPR ([3]; 30 μg/ml) [%] | KA (HA-tagged CD38) [M⁻¹] | Kd (HA-tagged CD38) [nM] | ka (HA-tagged CD38) [M⁻¹ s⁻¹] | kd (HA-tagged CD38) [s⁻¹] | lysis of JK6L by ADCC [4] |
| --- | --- | --- | --- | --- | --- | --- | --- | --- | --- | --- | --- | --- | --- | --- | --- | --- | --- | --- | --- |
| -005: human monoclonal IgG1 anti-CD38 antibody, VL region SEQ ID No:12 and VH region SEQ ID No:17 | 102 % of NGD control | 98 % of NGD control | 66 % of NGD control | 34 | 68 % of NGD control | 32 | pronounced inhibitory effect | lysis is induced | 104 % of NGD control | 100 % of NGD control | 82 % of NGD control | 18 | 79 % of NGD control | 21 | 1.7e+08 ± 3.68e+07 | 6.06 | 88800 ± 19500 | 0.000522 ± 1.16e-05 | lysis is induced |
| -024: human monoclonal IgG1 anti-CD38 antibody, VL region SEQ ID No:22 and VH region SEQ ID No:27 (antibody, listed as Homo sapiens, V domains shown) VH: EVQLVQSGAEVKKPGESLKISCKGSGYSFSNYWIGWVRQMPGKGLEWMGIIYPHDSDARYSPSFQGQVTFSADKSISTAYLQWSSLKASDTAMYYCARHVGWGSRYWYFDLWGRGTLVTVSS VL: EIVLTQSPATLSLSPGERATLSCRASQSVSSYLAWYQQKPGQAPGLLIYDASNRASGIPARFSGSGSGTDFTLTISSLEPEDFAVYYCQQRSNWPLTFGGGTKVEIK | 105 % of NGD control | 104 % of NGD control | 100 % of NGD control | – | 99 % of NGD control | – | No inhibitory effect | – | – | – | – | – | – | – | – | – | – | – | – |
